# Data taken from the supplement of paper PMC10567573.
# B1: ADAMTS4 (parent)
# chain: HVDPEEPWSPCSARFITDFLDNGY
# B2: CDC14A (parent)
# chain: LNLAMVYRYCCKLNKKLKSYSLSR
# Variants of: B1
# Assay: protein stability index of a GFP-peptide fusion (GPS, HEK-293T) (PSI 1-6); higher = more stable
# Conditions: c terminus: a fixed tail appended
# 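Also: lentivirally expressed fusions sorted by FACS into six bins by GFP to DsRed ratio, PSI derived from sequencing read proportions per bin multiplied by bin number.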
row,Variant,protein stability index
1,HVDPEEPWSPCSARFIIDFLDNGY,2.13
2,HVDPEEPWSPCSARFIKDFLDNGY,1.71
3,HVDPEEPWSPCSARFILDFLDNGY,2.39
4,HVDPEEPWSPCSARFIMDFLDNGY,2.38
5,HVDPEEPWSPCSARFINDFLDNGY,1.62
6,HVDPEEPWSPCSARFIPDFLDNGY,1.88
7,HVDPEEPWSPCSARFIQDFLDNGY,1.77
8,HVDPEEPWSPCSARFIRDFLDNGY,2.03
9,HVDPEEPWSPCSARFISDFLDNGY,1.88
10,HVDPEEPWSPCSARFIVDFLDNGY,1.83
11,HVDPEEPWSPCSARFIWDFLDNGY,1.86
12,HVDPEEPWSPCSARFIYDFLDNGY,1.83
13,HVDPEEPWSPCSARFITAFLDNGY,2.2
14,HVDPEEPWSPCSARFITCFLDNGY,2.73
15,HVDPEEPWSPCSARFITEFLDNGY,1.99
16,HVDPEEPWSPCSARFITFFLDNGY,1.6
17,HVDPEEPWSPCSARFITGFLDNGY,1.59
18,HVDPEEPWSPCSARFITHFLDNGY,1.89
19,HVDPEEPWSPCSARFITIFLDNGY,2.73
20,HVDPEEPWSPCSARFITKFLDNGY,2.02
21,HVDPEEPWSPCSARFITLFLDNGY,2.6
22,HVDPEEPWSPCSARFITMFLDNGY,2.9
23,HVDPEEPWSPCSARFITNFLDNGY,1.58
24,HVDPEEPWSPCSARFITPFLDNGY,2.17
25,HVDPEEPWSPCSARFITQFLDNGY,1.67

row,Variant,protein stability index
1,HVDPEEPWSPCSARFITRFLDNGY,1.13
2,HVDPEEPWSPCSARFITSFLDNGY,1.61
3,HVDPEEPWSPCSARFITTFLDNGY,1.65
4,HVDPEEPWSPCSARFITVFLDNGY,2.03
5,HVDPEEPWSPCSARFITWFLDNGY,1.53
6,HVDPEEPWSPCSARFITYFLDNGY,1.94
7,HVDPEEPWSPCSARFITDALDNGY,1.86
8,HVDPEEPWSPCSARFITDCLDNGY,1.5
9,HVDPEEPWSPCSARFITDDLDNGY,2.54
10,HVDPEEPWSPCSARFITDELDNGY,1.96
11,HVDPEEPWSPCSARFITDGLDNGY,2.06
12,HVDPEEPWSPCSARFITDHLDNGY,2.29
13,HVDPEEPWSPCSARFITDILDNGY,1.8
14,HVDPEEPWSPCSARFITDKLDNGY,2.16
15,HVDPEEPWSPCSARFITDLLDNGY,1.64
16,HVDPEEPWSPCSARFITDMLDNGY,1.89
17,HVDPEEPWSPCSARFITDNLDNGY,2.05
18,HVDPEEPWSPCSARFITDPLDNGY,3
19,HVDPEEPWSPCSARFITDQLDNGY,2.21
20,HVDPEEPWSPCSARFITDRLDNGY,1.65
21,HVDPEEPWSPCSARFITDSLDNGY,2.17
22,HVDPEEPWSPCSARFITDTLDNGY,2.02
23,HVDPEEPWSPCSARFITDVLDNGY,1.78
24,HVDPEEPWSPCSARFITDWLDNGY,1.93
25,HVDPEEPWSPCSARFITDYLDNGY,1.58

row,Variant,protein stability index
1,HVDPEEPWSPCSARFITDFADNGY,1.96
2,HVDPEEPWSPCSARFITDFCDNGY,1.52
3,HVDPEEPWSPCSARFITDFDDNGY,2.22
4,HVDPEEPWSPCSARFITDFEDNGY,2.24
5,HVDPEEPWSPCSARFITDFFDNGY,2.04
6,HVDPEEPWSPCSARFITDFGDNGY,2.31
7,HVDPEEPWSPCSARFITDFHDNGY,1.92
8,HVDPEEPWSPCSARFITDFIDNGY,1.78
9,HVDPEEPWSPCSARFITDFKDNGY,1.93
10,HVDPEEPWSPCSARFITDFMDNGY,1.82
11,HVDPEEPWSPCSARFITDFNDNGY,2.39
12,HVDPEEPWSPCSARFITDFPDNGY,2.15
13,HVDPEEPWSPCSARFITDFQDNGY,2.28
14,HVDPEEPWSPCSARFITDFRDNGY,2.3
15,HVDPEEPWSPCSARFITDFSDNGY,1.82
16,HVDPEEPWSPCSARFITDFTDNGY,2.13
17,HVDPEEPWSPCSARFITDFVDNGY,1.92
18,HVDPEEPWSPCSARFITDFWDNGY,1.59
19,HVDPEEPWSPCSARFITDFYDNGY,2.14
20,HVDPEEPWSPCSARFITDFLANGY,1.35
21,HVDPEEPWSPCSARFITDFLCNGY,1.95
22,HVDPEEPWSPCSARFITDFLENGY,1.71
23,HVDPEEPWSPCSARFITDFLFNGY,2.12
24,HVDPEEPWSPCSARFITDFLGNGY,1.76
25,HVDPEEPWSPCSARFITDFLHNGY,1.43

row,Variant,protein stability index
1,HVDPEEPWSPCSARFITDFLINGY,2.69
2,HVDPEEPWSPCSARFITDFLKNGY,1.88
3,HVDPEEPWSPCSARFITDFLLNGY,1.6
4,HVDPEEPWSPCSARFITDFLMNGY,1.77
5,HVDPEEPWSPCSARFITDFLNNGY,1.84
6,HVDPEEPWSPCSARFITDFLPNGY,1.96
7,HVDPEEPWSPCSARFITDFLQNGY,2.21
8,HVDPEEPWSPCSARFITDFLRNGY,1.87
9,HVDPEEPWSPCSARFITDFLSNGY,1.73
10,HVDPEEPWSPCSARFITDFLTNGY,1.96
11,HVDPEEPWSPCSARFITDFLVNGY,2.2
12,HVDPEEPWSPCSARFITDFLWNGY,2.42
13,HVDPEEPWSPCSARFITDFLYNGY,1.33
14,HVDPEEPWSPCSARFITDFLDAGY,1.8
15,HVDPEEPWSPCSARFITDFLDCGY,2.35
16,HVDPEEPWSPCSARFITDFLDDGY,1.88
17,HVDPEEPWSPCSARFITDFLDEGY,2.19
18,HVDPEEPWSPCSARFITDFLDFGY,1.85
19,HVDPEEPWSPCSARFITDFLDGGY,2.07
20,HVDPEEPWSPCSARFITDFLDHGY,1.62
21,HVDPEEPWSPCSARFITDFLDIGY,2.52
22,HVDPEEPWSPCSARFITDFLDKGY,1.57
23,HVDPEEPWSPCSARFITDFLDLGY,1.71
24,HVDPEEPWSPCSARFITDFLDMGY,1.92
25,HVDPEEPWSPCSARFITDFLDPGY,2.09

row,Variant,protein stability index
1,HVDPEEPWSPCSARFITDFLDQGY,2.09
2,HVDPEEPWSPCSARFITDFLDRGY,1.7
3,HVDPEEPWSPCSARFITDFLDSGY,1.47
4,HVDPEEPWSPCSARFITDFLDTGY,1.46
5,HVDPEEPWSPCSARFITDFLDVGY,1.94
6,HVDPEEPWSPCSARFITDFLDWGY,1.3
7,HVDPEEPWSPCSARFITDFLDYGY,1.78
8,HVDPEEPWSPCSARFITDFLDNAY,1.74
9,HVDPEEPWSPCSARFITDFLDNCY,2.17
10,HVDPEEPWSPCSARFITDFLDNDY,2.24
11,HVDPEEPWSPCSARFITDFLDNEY,1.96
12,HVDPEEPWSPCSARFITDFLDNFY,2
13,HVDPEEPWSPCSARFITDFLDNHY,2.12
14,HVDPEEPWSPCSARFITDFLDNIY,2.05
15,HVDPEEPWSPCSARFITDFLDNKY,2.06
16,HVDPEEPWSPCSARFITDFLDNLY,1.82
17,HVDPEEPWSPCSARFITDFLDNMY,1.69
18,HVDPEEPWSPCSARFITDFLDNNY,1.61
19,HVDPEEPWSPCSARFITDFLDNPY,2.1
20,HVDPEEPWSPCSARFITDFLDNQY,1.65
21,HVDPEEPWSPCSARFITDFLDNRY,1.53
22,HVDPEEPWSPCSARFITDFLDNSY,1.71
23,HVDPEEPWSPCSARFITDFLDNTY,2.22
24,HVDPEEPWSPCSARFITDFLDNVY,2.27
25,HVDPEEPWSPCSARFITDFLDNWY,1.82

row,Variant,protein stability index
1,HVDPEEPWSPCSARFITDFLDNYY,2.02
2,HVDPEEPWSPCSARFITDFLDNGA,2.32
3,HVDPEEPWSPCSARFITDFLDNGC,1.39
4,HVDPEEPWSPCSARFITDFLDNGD,1.75
5,HVDPEEPWSPCSARFITDFLDNGE,2.01
6,HVDPEEPWSPCSARFITDFLDNGF,2.17
7,HVDPEEPWSPCSARFITDFLDNGG,2.36
8,HVDPEEPWSPCSARFITDFLDNGH,1.9
9,HVDPEEPWSPCSARFITDFLDNGI,2.05
10,HVDPEEPWSPCSARFITDFLDNGK,1.94
11,HVDPEEPWSPCSARFITDFLDNGL,1.84
12,HVDPEEPWSPCSARFITDFLDNGM,2.07
13,HVDPEEPWSPCSARFITDFLDNGN,2.21
14,HVDPEEPWSPCSARFITDFLDNGP,1.92
15,HVDPEEPWSPCSARFITDFLDNGQ,2.1
16,HVDPEEPWSPCSARFITDFLDNGR,1.96
17,HVDPEEPWSPCSARFITDFLDNGS,1.81
18,HVDPEEPWSPCSARFITDFLDNGT,2
19,HVDPEEPWSPCSARFITDFLDNGV,1.73
20,HVDPEEPWSPCSARFITDFLDNGW,1.64

# Variants of: B2
# Assay: as above
# Conditions: c terminus: a fixed tail appended
row,Variant,protein stability index
1,LNLNMVYRYCCKLNKKLKSYSLSR,3.18
2,LNLAMPYRYCCKLNKKLKSYSLSR,2.15
3,LNLAMVYRYCCKLNKKLKIYSLSR,3.03
4,LNLAMVYRYCCKLNKKLKSYSVSR,1.04
5,LNLAMVYRYFCKLNKKLKSYSLSR,2.71
6,LNLAMVYRYCCKLNKKLKSYSLHR,2.36
7,LNLAMVYRYCCKLNKKLKSYSLSI,3.79
8,LNLAMVYRYCCKLNKKNKSYSLSR,2.54
9,LNLAMVYRYCCPLNKKLKSYSLSR,2.87
10,LNLAMVYRYCCKDNKKLKSYSLSR,2.11
11,LNLAMVYRYCNKLNKKLKSYSLSR,3.24
12,LNLAMVYRYCCVLNKKLKSYSLSR,2.59
13,LNAAMVYRYCCKLNKKLKSYSLSR,2.74
14,LNLAMVYRYCCKLNKKLKSYSLSK,2.13
15,LNLAMVYRYCCKLNKKLKSYDLSR,2.01
16,LNLAMVYRYQCKLNKKLKSYSLSR,2.8
17,LNLAMVYRYCCKLNKKLKSYSLKR,3.42
18,LNLAMVYRYCCKLNKKLKSTSLSR,2.42
19,LNCAMVYRYCCKLNKKLKSYSLSR,4
20,LNLAMVYRYCCKPNKKLKSYSLSR,1.2
21,LVLAMVYRYCCKLNKKLKSYSLSR,1.82
22,LNLAMVYNYCCKLNKKLKSYSLSR,1.97

row,Variant,protein stability index
1,LNLAMVYRYCCKLNKKLKSYSWSR,2.76
2,LNLAQVYRYCCKLNKKLKSYSLSR,1.56
3,LFLAMVYRYCCKLNKKLKSYSLSR,1.04
4,LNLAMVYRYCCKLNKKLMSYSLSR,3.72
5,LNLAMLYRYCCKLNKKLKSYSLSR,2.01
6,LNLAMVYRYCCKLNKKLKSYHLSR,2.13
7,LNLAMVYRYCCKLNKKLKSYSHSR,3.37
8,LNLAYVYRYCCKLNKKLKSYSLSR,3.21
9,LNLAMVYRYCCKLNKKLKSYSISR,3.6
10,LNLAMVYRYCCKMNKKLKSYSLSR,3.6
11,LNLAMVYRYCCKSNKKLKSYSLSR,1.8
12,LNLAMVYRYCCKLNQKLKSYSLSR,4.63
13,LNLAMVYRYCCKLNLKLKSYSLSR,3.39
14,LNLAMNYRYCCKLNKKLKSYSLSR,1.63
15,LNLAMVYRYRCKLNKKLKSYSLSR,1.59
16,LNLAMVYRYCCKLNKKTKSYSLSR,2.08
17,LNLAMVYRYCCKLPKKLKSYSLSR,4.59
18,LNLAMVQRYCCKLNKKLKSYSLSR,2.71
19,LNLAMVYRYCCKLNKKLHSYSLSR,2.96
20,LNRAMVYRYCCKLNKKLKSYSLSR,2.17
21,LNLAMVYRYCCKLNKKLQSYSLSR,1.97
